Results published in the supplement of paper PMC9732359.
± gives the uncertainty stated by the source.

Test: protein stability index of a GFP-peptide fusion (yeast GPS) (PSI 1-4); higher = more stable; sorted into four equal gates, so the index is relative within each strain
Outline: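 Mid-log yeast cultures in leucine-free medium, carrying a pooled plasmid library, were sorted into four equal gates by their GFP/Cherry fluorescence ratio. Each plasmid expressed Cherry along with GFP fused upstream of a tiled 17-residue yeast protein peptide. Plasmids recovered from each gate were PCR-amplified and Illumina-sequenced, with reads assigned to strains by barcodes. The protein stability index was obtained by summing each gate's read frequency weighted by its gate number.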

Row | Sequence | protein stability index (doa10∆) | protein stability index (pdr5∆) | protein stability index (san1∆) | protein stability index (ubr1∆)
1 | GQKNEVRILRLITTNSV [SNF2] | 2.21 ± 0.052 | 1.95 ± 0.052 | 2.14 ± 0.058 | 2.08 ± 0.049
2 | KLYTFLARRTDAPFNKV [RPL18A] | 1.78 ± 0.052 | 1.65 ± 0.042 | 1.97 ± 0.079 | 1.89 ± 0.068
3 | LVCGNDSSYQDIFAVNL [RET1] |  | 2.04 ± 0.25 | 2.24 ± 0.26 | 
4 | VRELFEMARTKKACIIF [RPT1] | 1.12 ± 0.093 | 1.29 ± 0.11 | 1.08 ± 0.21 | 1.66 ± 0.14
5 | ISLVDDIINAVNEIMYK [MTW1] | 2.9 ± 0.073 | 2.91 ± 0.081 | 2.83 ± 0.053 | 3.1 ± 0.095
6 | TRDEETTKLAFLVEYEG [SIR4] | 3.02 ± 0.14 | 3.06 ± 0.095 |  | 2.96 ± 0.13
7 | DGIFSSKTDNIEDPNLS [YMR153W/NUP53] | 2.59 ± 0.086 | 2.2 ± 0.092 | 2.69 ± 0.096 | 2.55 ± 0.095
8 | YPSKTLKTDGVRAVSIT [FAS2] | 2.12 ± 0.078 | 2.3 ± 0.087 | 2 ± 0.091 | 2.23 ± 0.061
9 | MRRNSKILNIIKCSQSS [POP5] | 1.92 ± 0.049 | 2.27 ± 0.082 | 2.1 ± 0.073 | 2.21 ± 0.046
10 | KVLGVKDMSPILGELKR [LRP1] | 2.71 ± 0.089 | 3.14 ± 0.068 | 2.88 ± 0.065 | 3.12 ± 0.045
11 | GMNLLSNLSQNVVPYHR [SWI1] | 1.88 ± 0.079 | 2.88 ± 0.1 | 2.46 ± 0.098 | 2.43 ± 0.065
12 | YMRKQVGVGKLNKLYGG [RPS19A] | 2.99 ± 0.16 | 2.48 ± 0.17 | 2.89 ± 0.14 | 3.41 ± 0.12
13 | EVTDKNYYYLFDKKSFF [PRP8] | 2.92 ± 0.056 | 2.44 ± 0.043 | 2.9 ± 0.041 | 2.84 ± 0.04
14 | NTSAKNKNGENKKIGKR [SIR4] | 3.02 ± 0.27 | 3.19 ± 0.14 | 3.03 ± 0.21 | 
15 | KSPPQFFYNISSIHWNN [SIN4] | 2.15 ± 0.042 | 1.89 ± 0.039 | 2.17 ± 0.065 | 2.11 ± 0.042
16 | KTKAMSLSIEENIPVAL [POP1] | 2.92 ± 0.079 | 3.01 ± 0.099 | 3.22 ± 0.1 | 3.17 ± 0.092
17 | DEAKEKQLVEKAELRLA [ECM29] |  | 3.26 ± 0.24 |  | 3.27 ± 0.16
18 | SDPLTVFSESCSNESFA [SNU114] | 2.83 ± 0.055 | 2.96 ± 0.057 | 2.58 ± 0.047 | 2.96 ± 0.038
19 | TPSDLSESGSKLNVDQF [POP1] | 3.46 ± 0.098 | 3.4 ± 0.094 | 3.19 ± 0.072 | 3.21 ± 0.1
20 | PSKLVITKLHLDKDRKA [RPL26A] | 1.73 ± 0.18 | 1.75 ± 0.086 | 1.75 ± 0.28 | 1.21 ± 0.099
21 | ATLKEIKSIIEQRKQKL [SMC3] | 2.89 ± 0.087 | 3.16 ± 0.08 | 3.16 ± 0.046 | 3.04 ± 0.052
22 | SSPYAAMLAAQDVAAKC [RPS14B] | 2.14 ± 0.055 | 1.42 ± 0.055 | 1.3 ± 0.082 | 1.73 ± 0.05
23 | VNNPQEETSHLLTVTPG [RPN10] | 2.62 ± 0.13 | 2.84 ± 0.08 | 2.99 ± 0.14 | 2.86 ± 0.066
24 | MEELGIVTPVEKAVEEK [RPT3] |  | 1.11 ± 0.094 |  | 1.47 ± 0.17
25 | GGAYTVSTAAAATVRST [RPL43A] | 2.1 ± 0.053 | 2.25 ± 0.049 | 1.95 ± 0.069 | 2.14 ± 0.048
26 | DTQTFSVLLQQLLTPGS [YGL172W/NUP49] | 1.31 ± 0.13 | 1.43 ± 0.095 | 1.36 ± 0.1 | 1.48 ± 0.058
27 | MVKGLLKSFTESTAGSA [ECM29] | 3.34 ± 0.26 | 2.97 ± 0.18 | 2.81 ± 0.11 | 3.34 ± 0.096
28 | TSDNLLTITKAAGANVD [RPP1B] | 1.97 ± 0.066 | 2.13 ± 0.056 | 3.05 ± 0.08 | 2.26 ± 0.082
